For assay [1], the target named is human DLL4 (cell surface) (human). As to the kind of experiment: FACS.
Another assay deals with T1, mouse DLL4 ECD (mouse, UniProt Q9JI71).
T1 chain: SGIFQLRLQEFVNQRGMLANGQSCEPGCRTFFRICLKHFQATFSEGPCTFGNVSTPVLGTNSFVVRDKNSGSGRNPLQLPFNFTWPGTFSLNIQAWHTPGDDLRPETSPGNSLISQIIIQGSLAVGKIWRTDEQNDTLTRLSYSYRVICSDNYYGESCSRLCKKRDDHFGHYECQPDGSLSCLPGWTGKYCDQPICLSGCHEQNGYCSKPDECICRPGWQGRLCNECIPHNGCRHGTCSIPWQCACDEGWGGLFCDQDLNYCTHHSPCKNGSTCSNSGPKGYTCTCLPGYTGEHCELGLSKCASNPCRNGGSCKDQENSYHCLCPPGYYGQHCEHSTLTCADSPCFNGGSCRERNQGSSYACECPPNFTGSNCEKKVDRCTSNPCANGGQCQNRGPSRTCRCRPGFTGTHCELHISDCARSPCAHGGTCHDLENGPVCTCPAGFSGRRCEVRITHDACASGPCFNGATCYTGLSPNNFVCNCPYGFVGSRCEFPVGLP
As to the kind of experiment: SPR. For orientation: In SPR one partner is held on a chip, and binding of the other changes the refractive index at the surface.

Another assay concerns the target human DLL4 ECD (human). The experiment in a line: competition ELISA.
Assay [2] addresses T2, mouse DLL4 (cell surface) (mouse, UniProt Q9JI71).
T2 chain: T1 chain
The experiment in a line: FACS. On the technique in general: Flow cytometry measures light scatter and fluorescence of single cells or particles in a stream.

This note sets out measurements from patent US20190315855 (published 2019).

Substitutions are numbered along the chain they refer to. Bounds are passed on as bounds.

Sequence of human DLL4 ECD (human) (chain, as listed by the source): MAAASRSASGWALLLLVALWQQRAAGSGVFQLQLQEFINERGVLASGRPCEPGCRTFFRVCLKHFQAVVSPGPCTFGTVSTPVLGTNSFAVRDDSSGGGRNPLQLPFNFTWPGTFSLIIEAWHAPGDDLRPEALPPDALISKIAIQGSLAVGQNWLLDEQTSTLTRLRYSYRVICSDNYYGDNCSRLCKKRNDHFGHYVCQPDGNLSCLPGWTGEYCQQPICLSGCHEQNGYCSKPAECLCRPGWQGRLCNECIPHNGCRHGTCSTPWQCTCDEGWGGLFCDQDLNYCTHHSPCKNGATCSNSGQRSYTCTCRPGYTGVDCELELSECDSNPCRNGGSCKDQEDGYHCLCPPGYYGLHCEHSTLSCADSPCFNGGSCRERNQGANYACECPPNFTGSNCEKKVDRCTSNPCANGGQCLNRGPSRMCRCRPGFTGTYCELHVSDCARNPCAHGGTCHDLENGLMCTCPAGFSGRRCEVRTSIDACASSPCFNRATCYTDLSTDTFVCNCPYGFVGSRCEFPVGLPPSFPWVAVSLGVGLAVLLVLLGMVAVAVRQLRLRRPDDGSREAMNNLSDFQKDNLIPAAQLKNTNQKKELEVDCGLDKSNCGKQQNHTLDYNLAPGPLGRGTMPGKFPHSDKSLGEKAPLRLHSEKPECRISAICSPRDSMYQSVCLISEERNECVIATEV
Sequence of human DLL4 (cell surface) (human) (chain, as listed by the source): as above

B1: 14A11 rat mAb (antibody, V domains shown)
VH: EVQLQQSGPELAKPGSSVKISCKASGYTFTNSYISWIKQTTGQGLEYVGYINTGSGGADYNEKFKGKATLTVDKSSRTAFMQLSSLTPGDSAVYYCAKSILLGSTCYFDYWGQGVLVTVSS
VL: NTVLTQSPALAVSLGQRVTISCKASRSVSSPMYSYIYWYQQKPGQQPKLLIYRASTLASGVPARFSGSGSGTDFTLNIDPVEADDIATYFCQQSWSDPFTFGSGTKLEIKR
As a reminder, the EC50 is the concentration that produces a half-maximal response. A low value points to higher potency in that assay. In assay [1], B1 showed an EC50 of more than 50.9 nM.

B2: h1A11.A12 (antibody, V domains shown)
VH: EVQLVESGGGLVQPGGSLRLSCAASGFTFSNFPMAWVRQAPGKGLEWVATISSSDGTTYYRDSVKGRFTISRDNAKNSLYLQMNSLRAEDTAVYYCARGYYNSPFAYWGQGTLVTVSS
VL: DIQMTQSPSSLSASVGDRVTITCRASQDIYYNLAWYQQKPGKSPKLLIFDTSSLADGVPSRFSGSGSGTDFTLTISSLQPEDFATYFCQQYDWYPPTFGQGTKLEIK
As a reminder, the Kd is the free concentration of one partner at which half of the binding sites on the other are occupied at equilibrium, for simple one-to-one binding. A high value points to a looser complex. Consider B2, for which, in the assay with mouse DLL4 ECD, the affinity, expressed as Kd, was 16 nM.

B3: h1A11.A7 (antibody, V domains shown)
VH: B2 VH
VL: B2 VL with Y31I, S43A, S53D, F87Y, W93Y
Take B3: binding in the assay with mouse DLL4 ECD was characterised by a dissociation constant (Kd) of 13 nM.

B4: h38H12.9 (antibody, V domains shown)
VH: EVQLVESGGGVVQPGRSLRLSCAASGFTFSNYGMYWVRQAPGKGLEWVAFISHGGGITYYRDSVKGRFTISRDNSKNTLYLQMNSLRAEDTAVYYCAALNWELGIDYWGQGTMVTVSS
VL: DIQMTQSPSSLSASVGDRVTITCRASEDIYSNLAWYQQKPGKAPKLLIYAANRLQDGVPSRFSGSGSGTDFTLTISSLQPEDFATYYCLQGSKFPLTFGQGTKLEIKR
The term IC50 denotes the concentration needed to halve the response being measured. In the assay with human DLL4 ECD, B4 registered an IC50 of 4.16 nM.

B5: h38H12.8 (antibody, V domains shown)
VH: B4 VH with V37I, N77S, Y95H
VL: EIVMTQSPATLSVSPGERATLSCRASEDIYSNLAWYQKKPGQSPRLLIYAANRLQDGVPARFSGSGSGTEYTLTISSLQSEDFAVYFCLQGSKFPLTFGQGTKLEIKR
For the molecule B5, the IC50 with human DLL4 ECD stood at 8.31 nM.

B6: h38H12.5 (antibody, V domains shown)
VH: B4 VH with V37I, N77S, Y95H
VL: B4 VL
Turning to B6, the IC50 with human DLL4 ECD stood at 14.8 nM.

B7: h38H12.15 (antibody, V domains shown)
VH: B4 VH with V11L, R16G, V37I, N77S, Y95H
VL: B4 VL with F71Y
The molecule B7 gave an IC50 with human DLL4 ECD of 5.71 nM.

B8: h38H12.16 (antibody, V domains shown)
VH: B4 VH with V11L, R16G, V37I, N77S, Y95H
VL: B5 VL
B8: the IC50 in the assay with human DLL4 ECD was determined as 3.77 nM.

B9: h38H12.11 (antibody, V domains shown)
VH: B4 VH
VL: B4 VL with F71Y
On to B9, for which, in the assay with human DLL4 ECD, the IC50 worked out at 3.8 nM.

B10: h38H12.10 (antibody, V domains shown)
VH: B4 VH
VL: B4 VL with Q38K, A43S, F71Y, Y87F
For the molecule B10, the IC50 with human DLL4 ECD was 3.9 nM.

B11: h38H12.6 (antibody, V domains shown)
VH: B4 VH with V37I, N77S, Y95H
VL: B4 VL with Q38K, A43S, F71Y, Y87F
B11 displayed an IC50 with human DLL4 ECD of 27 nM.

B12: h38H12.12 (antibody, V domains shown)
VH: B4 VH
VL: B5 VL
Consider B12, for which, in the assay with human DLL4 ECD, the IC50 was found to be 3.23 nM.

B13: h38H12.7 (antibody, V domains shown)
VH: B4 VH with V37I, N77S, Y95H
VL: B4 VL with F71Y
Take B13: the IC50 in the assay with human DLL4 ECD amounted to 12.5 nM.

B14: h38H12.14 (antibody, V domains shown)
VH: B4 VH with V11L, R16G, V37I, N77S, Y95H
VL: B4 VL with Q38K, A43S, F71Y, Y87F
Molecule B14 had an IC50 with human DLL4 ECD of 5.84 nM.

B15: h38H12.13 (antibody, V domains shown)
VH: B4 VH with V11L, R16G, V37I, N77S, Y95H
VL: B4 VL
B15: the IC50 in the assay with human DLL4 ECD is 5.29 nM.

B16: 14G1 rat mAb (antibody, V domains shown)
VH: EVQLQQSGAELAKPGSSVKISCKASGYTFTNYDISWIKQTNGQGLEYLGYINTGSGGIYSNEKFKGKATLTVDKSSNTAFMQLSSLTPEDTAVYYCVREGNNFDHWGQGVKVTVSS
VL: DTVMTQSPASMSTSVGERVTVNCKASQSVGTIVAWFQQKPGQSPKRLIYLATYRHTGVPDRFIGSGFGRDFTLTISNVEAEDLAVYYCLQYGSRPFTFGAGTKLEIKR
With B16, the EC50 in assay [2] was more than 50.9 nM.
